# Source: the RNAGym collection of RNA variant scans (doi:10.1073/pnas.2313332121)
# B1: TPR t1 (parent)
# chain: GACCAAUCUGCCCUCAGAGCUCGAGAACAUCUUCGGAUGCAGAGGAGGCAGGCUUCGGUGGCGCGAUAGCGCCAACGUCCUCAACCUCCAAUGCAUCCCACCACAUGAUGAUGCCUGAAGAGCCUUGGUUUUUUG
# Variants of: B1
# Assay: polymerase ribozyme fitness, log enrichment relative to wild type (log ratio); higher = more active; in vitro selection for triplet polymerase activity
# Procedure, shortened: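 Fitness is a logarithmic measure of how a genotype enriched relative to the wild type, with replicate averages weighted by inverse variance. The logarithm uses base 2, and enrichment came from Illumina sequencing of input and output libraries. Those libraries were PCR-built, transcribed mutants of each subunit of a heterodimeric triplet polymerase ribozyme, passed through one triplicate in vitro selection round that included frozen incubation at −7 °C, gel excision of extended constructs and streptavidin-bead capture. Genotypes were kept only if they had ≥10 input reads and ≥1 read per output.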
row,Variant,polymerase ribozyme fitness (log ratio)
1,GACCAAUCUGCCCUCAGAGCUCGAGAACAUCUUCGGAUGCAGAGGAGGCAGGCUUCGGUGGCGCGAUAGCGCGAACGUCCUCAAUCUCCAAUGCAUCCCACCACAUGAUGAUGCCUCAAGAGCCUUGGUUUUAUG [C73G C85U G117C U133A],-6.98
2,GACCAAUCUGCCCUCAGAGCUCGAGAACAUCUUCGGAUGCAGAGGAGGCAGGCUUCGGUGGCGCGAUAGGGCCAACGUCAUCAACCUCCAAUGCAUCCCACCAGAUGAUGAUGCCUGAAGAGCGUUGGUUUUUUG [C70G C80A C104G C124G],-6.03
3,GACCAAUCUGGCCUCAGAGCUUGAGAACAUCUUCGAAUGCAGAGGAGGCAGGCUUCGGUGGCGCGAUAGCGCCAACGUCCUCAACCUCCAAUGCAUCCCACCACAUGAUGAUGCCUGAAGAGCCUUGGUUUUUUG [C11G C22U G36A],-4.08
4,GACCAAUCUGCUCUCAGAGCUCGAGAACAUCUUCGGAUGCAGAGGAGGCAGGCUUCGGUGGCGCGAUAGCGUCAACGUCCUCAACUUCCAAUGCAUCCCACCACAUGAUGACGCCUGAAGAGCCUUGGUUUUUUG [C12U C72U C86U U112C],1.05
5,GACCAAGCUGCCCUCAGAGCUCGAGAACAUCUUCGGAUGCUGAGGAGGCAGGCUUCGGGGGCGCGAUAGCGCUAACGUCCUCAACCUCCAAUGCAUCCCACCACAUGAUGAUGCCUGAAGCGCCUUGGUUUUUUG [U7G A41U U59G C73U A121C],0.0183
6,GACCAAUCUGCCCUGAGAGCUCGAGAACAUCUUCGGAUGCAGAGGAGGCAGGCUUCGGUGGCGCGAUAGCGCCAACGUCCUCAACCUCCAAUCCAUCCCACCACAUGAUGAUGCCUGAAGAGCCUUGGUUUUUUG [C15G G93C],-4.1
7,GACCAAUCUGCCCUCAGAGCUCGAGAACAUCUUCGGAUGCAGAGGAGGCAGGCUUCGGUGCCGCGCUAGCGCCAACGUCCUCAACCUCCAAUGCAUCCCACCACAUGAUGAUGCCUGAAGAGCCUUGGUUUUUUG [G61C A66C],-2.87
8,GACCAAUCUGCCCUCAGAGCUCGAGAACAUCUUCGGAUGCAGAGGAGGCAGGCUUCGGUGGCGCGAUAGCGCCAACGUCCUCAACAUCCAAUGCAUCCCACCACAUGAUGAUGCCUGAAGAGCGUUGAUUUUUUG [C86A C124G G128A],0.914
9,GACCAAUCUGCCCUCAGAACUCGAGAACAUCUUCGGAUGCAGAGGAGGCAGGCUUCGGUGGCGCGAUAGCGCCAACGGCUUCAACCUCCAAUGCAUCCCACCACAUGAUGAUGCCUGAAGAGCCUUGGUUUUUUG [G19A U78G C80U],-3.52
10,GACCAAUCUGCCCUCAGAGCUCGAGAACAUCUUCGGAUGCAGAGGAGGCAGGCUUCGGUGGCGCGAUAGCGACAACGUCCUCAACCUCCAAUGCAACCCACCACAUGGUGAUGCCUGAAGAUCCUUGGCUUUUUG [C72A U96A A108G G122U U129C],-3.93
11,GACCAAUCUGCCCUCAGAGCUCGAGAACAUCUUCGGAUGCAGAGGAGGCAGGCAUCGGUGGCGCGAUAGCGCCAACGUCCUCAACCGCCAAUGCAUCCCACCACAUGAUGAUGCCUGAAGAGACUUGGUUUUUUG [U54A U87G C123A],0.724
12,GACCAAUCUGCCCUCAGAGCUCGAGAACAUCUUCGGAUCCAGAGGAGGCAGGCUUCGGUGGCCCGAUAGCGCCAACGUCCUCAACCUCCAAUGCAUCCCACCAAAUGAUGAUGCCUGAAGAGCCUUGGUUUUUUG [G39C G63C C104A],-3.07
13,GACCAAUCUGCCCUCAGAGAUCGAGAACAUCUUCGGAUGCAGAGGAGGCAGGCUUCGGUCGCGCGAUAGCGCCAACGUCCUCAACCUCCAAUGCAUCCCACCACAUGAUGAUGCCUGAAGAGCCUUGGUUUUUUG [C20A G60C],-3.33
14,GACCAAUCUGCCCUCAGAGCUCGAGAACAUCUUCGGAUGCAGAGGAGGCAGGCUUGGGUGGCGCGUUAGCGCCAACGUCCUCAACCUCCAAUGCAUCCCACCACAUGAUGAUGCCUGAAGAGCCUUGGUUUUUUG [C56G A66U],-1.02
15,GACCAAUCUGCCCUAAGAGCUCGAGAACAUCUUCGGAUGCAAAGGAGGCAGGAUUCGGUGGCGCGAUAGCGCCAACGUCCUCAACCUCCAAUGCAUCCCAUCACAUGAUGAUGCCUGAAGAGCCUUGGUUUUUUG [C15A G42A C53A C101U],-4.53
16,GACCAAUCUGCCCUCAGAGCUCGAGAACAUCUUCGGAUGCAGGGGAGGCAGGCUUCGGUGGCGCGAUAGCGCCAACGUCCUCAACCUCCAAUGCAUCCCACCACAUGAUGAUGCCUUAAGAGCCUUGGUUUUUUG [A43G G117U],-4.21
17,GACCAAUCUGCCCUCAGAGCUCGAGAACAUCUUCGGAUGCAGAGGAGGCAGGCUUCGGUGGCGGGAUAGCGCCAACGUCCUGAACCUCUAAUGCAUCCCGCCACAUGAUGCUGCCAGAAGAGCCUUGGGUUUUUG [C64G C82G C89U A100G A111C U116A U129G],-5.44
18,GACCAAUCUACCCUCAGAGCUCGAGAACAUCUUCGAAUGCAGAGGAGGCAGGCUUAGGUGGCGCGAUAGCGCCAACGUCCUCAACCUCCAAUGCAUCCCACCACUUGAUGAAGCCUGAAGAGCCUUGGUUUUUUG [G10A G36A C56A A105U U112A],-3.87
19,GUCCAAUCUGCCCUCAGAGCUCGAGAACAUCUUCGGAUGCAGAGGAGGCAGGCUUCGGUGGCGCGAUAGCGCCAACGUCCUCAACCUCCAAUGCAUCCCACCACAAGAUGAUGCCUGAAGAGCCUUGGUUUUUUG [A2U U106A],-1.89
20,GACCAAUCUGCCCUCAGAGCUCGAGAACAUCUUCGGAUCCUGAGGAGGCAGGCUUCGGUGGCGCGAUAGCGCCAACGUCCUCAACCUCCAAUGCAUCCCACCACAUGAUGAUGCCUGAAGAGCCUUGGUUUUUUG [G39C A41U],-2.47
21,GACCAAUCUGCCCUCAGAGGUCGAGAACAUCUUCGGAUGCAGCGGAGGCAGGAUUCGGUGGCGCGAUAGCGCCAACGUCCUCAACCUCCAAUGCAUCCCACCACAUGAUGAUGCCUGAGGAGCCUUGGUUUUUUG [C20G A43C C53A A119G],-5.03
